# Measured values reported in the DeepSol protein solubility set.
# Experiment: soluble on expression in E. coli; label from the status in PepcDB or PDB records
row,Sequence,soluble on expression in E. coli
1,METAPDEAPTEFLEPGEEIVENVIEEEVVHEEDVEHHEEDGEMIEVQHEEVLEEIVEEDGMMFDTDGRVIEYSDVMVYEEGTEVIEEYVEVEDLGDGRYAYVMTDDIGHRRLLKPHEVEAVKKMPGMMEEEVVMDDEKAPNTSYAAAQKRGRFPPQARSSLSPQKPRAAGAYMGPEAYYQQPKRMTHMAKVDVEKYSPVTPVNRRPLMDNAIFKSKLPRKSAPWQEETAANGGPQSTSLIRSPSPMLKEPLFDDNEIRFKCAECGDGFPVMDRLCDHMIKQHDCQTNVREVQFFADRDFENFLLKVEKATLGRDPEDAIRKKSRAGSSQLFVCNYMNKGRQKMAELVEVGIVGLSERPLEVCTAFVQKTHGYECIRVKYCDQHIHYDGNIGFRVPIAVKRRLFEMSFKRLPIPCMQIMLGLEAEQLLPHPTRFEEKLKNLSHVEIIELLQIINASLRKHQEVEPRGKKVPIKFETIKSSEGSQTLMVKRVTPPKKEHMDYDEPDPNIPSTSAQALGYNPDDDEGDDVPMMSREEEVLDDETGEESVMTEDCDGMMEDNMCSFLVFFCWRKNGEK,not soluble
2,GPGSMVLIECKRLPKDEYSKDYDVFLVSMPGSTNIGEATDALQKMRNTRVRIKWMCAAAKQLAKDFCSDEQKHHLLGAVEDAERYMAIERAENRQLCSQEDLDAHIAAFKGSAMILFPAECSGTDAVKRLALVLDDENTTDLERSKAHRLLSIIDDGAATEDILQGPAVMWWSGKPLDRNADFTKYVGKNEKTKITMKLAAKDAPPPPREPAVDAKTQSEMMAFYFKKQEEMKKLIEDEDLTYGNSAWADPRGLRSQLHGFDGVKYKPG,soluble
3,MNTNREPRFHDKVQAACYALMLDEHGVPADTGTLLYTKNAAVDRSEASGDLSPAKEFSIGRGFLEFVVRERNHLAALEASDGPPTGYEADAKCDYCFEQDTCMVVSGRLDQESKAGRIGDPVPAEERAYFDELYDAIEAERGAIHDEYRKLWEQSPDERAADDRAVVGLSPAEQTELPDGRWRLTATRPGSAASKIREGDRVLASDGDPVAGRAEMARVERLDADRVEVTTDEPVSLCRLDVYPSELEHHHHHH,soluble
4,AHHHHHHGSKDDIVESVETLVRKGMIEEAIKIVENLQENFDKVIALCKIAELTRDESFLEDAIYFLKKIKDHDNKAIGYGEVAKVYALLGYEEESLELFEEAVKLTKNLNPVDKAITLTILANRLALAGFVDLSLEMFQNAFAEIIELNIELTKKTDLIIQLAEILEASGDALDSENALKFYEMAQDIYKNLKLGQREGIIEKKIELTRTLMHTSYPDIRKLAYEGRFIQALHEIEKRFGGNNVIPLLELTAWAYKTNVFERLKLKEITMEKLSASKLSDEEKFKVVQLLLEIDDTLKAYEIAITLESQELREKALVLIGLKMIDEGEVRFVEEKIFPLLSDEKREEFINFLKNLPIA,soluble
5,MKFAVIGNPISHSLSPLMHHANFQSLNLENTYEAINVPVNQFQDIKKIISEKSIDGFNVTIPHKERIIPYLDDINEQAKSVGAVNTVLVKDGKWIGYNTDGIGYVNGLKQIYEGIEDAYILILGAGGASKGIANELYKIVRPTLTVANRTMSRFNNWSLNINKINLSHAESHLDEFDIIINTTPAGMNGNTDSVISLNRLASHTLVSDIVYNPYKTPILIEAEQRGNPIYNGLDMFVHQGAESFKIWTNLEPDIKAMKNIVIQKLKGELLEHHHHHH,soluble
6,MAVSKNVTVIPARKHTRKSKDEEKPKLRVAAYCRVSTDSEEQATSYDTQIEHYTAYIQGHPDWMLAGIFADDGISGTNTKKREEFNRMIDECMAGNIDMIITKSISRFARNTLDCLKYIRQLKDKNIPVYFEKENINTMDSKGEVMLTIMASLAQQESQSLSQNVKLGLQYRYQQGEIQVNCARFLGYTKDENKRLVVVPEEAEIVKRIYREYLEGASMLKIARGLEADGILNGAGNERWHTSNINNILRNEKYIGDALLQKTYTVDFLTKKRVKNNGIVPQYYVENSHEAIIPREVFMQVQEELIRRRIVHTSPNGKTRTFSSNHVFAQIIICGKCGEVFRRVHWNNRGKKSIVWRCVSRLENTGLFCDARTVLESTIEQVLVTAINQTLCDKDSFLTTLRDNIATIINRESDKALADIDKRLEELQTELLKLATSNADYEKVGDEIHSLRDQKQKLQVENANRDELKKQIADMSTFLKKQSTALAEYDKQLVRRLIDKVTVFEDKFTVEFKSGVTVDVDE,soluble
7,MEFIVCNGCGCSPSKRQFFITACSHVFCETCRTTPTADFCHLCKIPTKTLKMDASLPKNVKKMFGDVGVMSTDIHKRLARVIGFQKIQKSIQLKMENKKSVMRKEQTKKVEKKTEEMHCQLSKLTSFEENNRKKLEDIERENEKLRNLISALELKVASSRDIDDDEFFMQGTPTSSNPSVAGSDVDNDELLDYDLLGLRNRSDSSSSNCSSQSNRGGSLF,not soluble
8,MDTLAFINRALVEEGYSLKDIKLVLITDFEPSSVEAIRRLLAVNQGVSFIGRKYVKEVLEKFGLRNVRFRAVEEIPSLEFKLPESGTVKVLPFRNSPQEASAGYLLEEERILFSGKFLGSFGEKGDTIQIFHRVFFPCRNILDYNVGLLESIGEEFEVFPFYGEKQKLSAKTLKEYFNYTVKGSVLEREVILGLVNGVLLNLSDEERENLLSSIGYLAEVDDKVIVDFYTEPNLFYEEFVNTLPDAVKSKEEFYRIVEKLLEHNFYVPLRAV,not soluble
9,MRNLTFLTRCKPLAASVLALMLLGGAAKSFANNDLPDLGTAAVNTFSLEKEMIYGDAYMRVIRSSAPMLNDPVLSQYLTELGNKLVAHATGVKTPFYFFLLQNDEINAFAFFGGHVAVHTGLFLNADNESELASVLGHEITHVTQRHLARSLEAQQKTGPATVAGLLGAILLTIAVPQAGMAALATTQAMATQSKINYTRLHEKEADRIGMQILVDAGFDPNASAEFFGKLASRYRFTTTPPQMLLTHPLPESRISEARDRAQQYPHRYVPDNLNFQLAKARIQVRFSSFSDDAVLSMFEKQLNKQTYGFKEAALYGKALALFRLKKFDESEKIVDELLKIDDNNLFYIDTKTDLLNERKDYAQAIKLLEAQRNLKPTSQVINANLANIYIEAGEPAKAIPLLEDMIFLDKQNQLPYQLLNLAYKKLGNPGMEYFSNAELMALGANYKGAIDQLNFAYRASEGNQLQLARIEARIRQFKQADREMDALKLEHHHHHH,not soluble
10,MGPEGALPKASEATVCANNSKVSSPGEKVVLWTREADRVILTMCQEQGAQPHTFSVISQQLGNKTPVEVSHRFRELMQLFHTACEASSEDEDDATSTSNADQLSDHGDLLSEEELDE,soluble
11,MGSDKIHHHHHHMADGAEFKVYTQRFIMEKIAYYLGQYHSLEENNAFWGEGFTEWHNVAKARPLFPSHRQPVLPGKLGFYDLRNNDTIEEQVALADSFGVTAFCHWHYWFGGKRVLYRPFDSMLKIQNSPVKVMLGWANESWTGIWHGLSDQVIFEQPYNKIELNEHAKLLADYFRHENYLKVNGKAAFLIYKPRKIPESKSYLQLLRQKVYENCGLDMYIIGTWGPGRLEVIHSADELGLDALVANNVGATFKSELSRKLYNGFWTAAKSLGLGPELRNYASTVKTLEYAHQNISGTVHSTIVTGWDNSPRSNRRALVLTNFNENSFKYAIDIAISNEKNNENKLLFIKSWNEWAEGNTLEPRFKEDWSLGKVLKKQIIKHDV,not soluble
12,MTRQMILAVGQQGPIARAETREQVVGRLLDMLTNAASRGVNFIVFPELALTTFFPRWHFTDEAELDSFYETEMPGPVVRPLFETAAELGIGFNLGYAELVVEGGVKRRFNTSILVDKSGKIVGKYRKIHLPGHKEYEAYRPFQHLEKRYFEPGDLGFPVYDVDAAKMGMFICNDRRWPETWRVMGLKGAEIICGGYNTPTHNPPVPQHDHLTSFHHLLSMQAGSYQNGAWSAAAGKVGMEEGCMLLGHSCIVAPTGEIVALTTTLEDEVITAALDLDRCRELREHIFNFKAHRQPQHYGLICEF,soluble
13,MAAPEAEVLSSAAVPDLEWYEKSEETHASQIELLETSSTQEPLNASEAFCPRDCMVPVVFPGPVSQEGCCQFTCELLKHIMYQRQQLPLPYEQLKHFYRKPSPQAEEMLKKKPRATTEVSSRKCQQALAELESVLSHLEDFFARTLVPRVLILLGGNALSPKEFYELDLSLLAPYSVDQSLSTAACLRRLFRAIFMADAFSELQAPPLMGTVVMAQGHRNCGEDWFRPKLNYRVPSRGHKLTVTLSCGRPSIRTTAWEDYIWFQAPVTFKGFRE,soluble
14,MDDHAFAAPAPAAPTAPALPMAVLAELTHRCPLQCPYCSNPVELEAASRELSTEDWQRVIGELAALGVLQIHFSGGEPLVRRDLVALVAHADRAGLYTNLITSAVMFTRAKVAELAEAGLAHVQVSLQGASAPVAERIGGFRGGHAKKIEAAAWVRAEGMALTLNAVMHRQNLDELPRIVEMAVEMGAQRLEVAHVQYYGWALKNRAALMPTLAQLDEATRIVEEAQARLSGVLAIDYVIPDYYAVRPKTCMGGWGRQFFNISPSGKVLPCHAAETITGLRFDSVREAPLAEIWQRSEALNLYRGTGWMQEPCRSCIHAEEDFGGCRCQAFALAGDAAATDPACAKSPLHAQLFSLAGAEAEAGADRFLYRNFSGGTPEG,not soluble
15,GSCEKENIGIEVTPVNAKFIITPVVIDATTGTDVTQSAEISFSKGNGTYEGTPELASESININAKYKGMTGSASVTIPALKAGQFGAKEVTIILSENFFAQEESSNSQIETTKHSGFKNNTSDYWYYITVTYTKKEGSEVIKNDYEGDDSEIKNIIDAYNKGVREDKVTLNDVQVLAHSRFSVFVDYMKTTSVYQIIEKSPKRDGNPVASFTVDSYNTIVSPKNEQIPGHGHAPSHGHGHGHGDDSNAGGGIIIAD,soluble
16,MCICPNRQTAASVGQRYGEPVVLRVDAGRMHRNGLPFFKADNGVWLTAQVPAAFLTRPRLEHHHHHH,not soluble
17,HHMKLYIMPGACSLADHILLRWSGSSFDLQFLDHQSMKAPEYLALNPSGAVPALQVGDWVLTQNAAILNYITDIAPAERGLSGDGSLKARAEINRWIAFSNSDVHPMYWALFGGTAYLQDPQMIARSQDNARQKLRVLYQRADAHLKHHNWLANGQRSGADAYLYVTLRWAKKVGVDLSSLDALSAFFERMEADPGVQAALQAEGLI,soluble
18,GMQYATLELNNAFKVLFSLRQVQAAEMVIAPGDREGGPDNRHRGADQWLFVVDGAGEAIVDGHTQALQAGSLIAIERGQAHEIRNTGDTPLKTVNFYHPPAYDAQGEPLPAGEG,soluble
19,MGSDKIHHHHHHMKTKETPEQKPEDMPIPIVDITSVEQQTVSLNLPSYGVVTPKYKTQLVTEVQGRMLTISPQFVAGGIVKKGDQLAQIEPSDYEADLMQAEATLAQATAALNEEIARGEVAKIEFKGYDKGLPPELGLRIPQLKKEQANVKYAQAALARAQRNLERTIIRAPFDGIIKARNVDLGQYVTLGTNLGELYDTSIAEIRLPISNDDLAYLESVDNPDTQVTLSASLAGKENTWIGNIIRSEGVIDADNRMVYLVAEIKDPYLREHKTQGSLPLKYGSFVNAVIKGRTVDGIVKLPRHVVRNEHVALINDNNIVEMRHVNVVRSDLQNVFIKDSLKTGERVAITHFNNMANGQLVKVIGEETKPAQTPAPESSLAATGVK,not soluble
20,DHVLLITGGTRGIGLLCARHFAECYGVKKLVLTGREQLPPREEWARFKTSNTSLAEKIQAVRELEAKGVQVEMLSLTLSDDAQVEQTLQHIKRTLGPIGGVIHCAGLTDMDTLAFIRKTSDDIQRVLEPKVSGLTTLYRHVCNEPLQFFVLFSSVSAIIPELSAGQADYAMANSYMDYFAEAHQKHAPIISVQWPNWKETGMGEVTNQAYRDSGLLSITNSEGLRFLDQIVSKKFGPVVLPAMANQTNWEPELLMK,soluble
